According to patent US7998940B2, “Aptamers to von Willebrand factor and their use as thrombotic disease therapeutics” (Archemix Corp., priority 2004, dated 2011):
Substitutions are numbered along the chain they refer to. Oligonucleotides are written 5' to 3', each unit as a sugar letter and its base; * is a phosphorothioate linkage, no mark a phosphodiester; rarer units and linkages stand in square brackets, end groups in braces. Plain capitals give the bases only. r = 2'-OH (RNA); f = 2'-fluoro

B1: AMX237.E10: DNA SELEX 2 aptamer clone (nucleic acid)
DNA: CTACCTACGATCTGACTAGCGGAATGAGAATGCTGGTGGATTGCTCAGGTCTGCTGGCTGCTTACTCTCATGTAGTTCC
modifications: DNA, backbone and methylation of C not given here
notes: DNA SELEX 2 aptamer clone
B2: AMX200.C11: DNA SELEX 1 aptamer clone (nucleic acid)
DNA: B1 DNA with A30G, G36A
modifications: DNA, backbone not given here
notes: DNA SELEX 1 aptamer clone
B3: AMX199.G10: DNA SELEX 1 aptamer clone (nucleic acid)
DNA: B1 DNA with C33T
modifications: DNA, backbone not given here
notes: DNA SELEX 1 aptamer clone
B4: AMX199.F7: DNA SELEX 1 aptamer clone (nucleic acid)
DNA: B1 DNA with A30G
modifications: DNA, backbone not given here
notes: DNA SELEX 1 aptamer clone
B5: AMX199.C2: DNA SELEX 1 aptamer clone (nucleic acid)
DNA: B1 DNA with T45C
modifications: DNA, backbone not given here
notes: DNA SELEX 1 aptamer clone
B6: AMX200.F11: DNA SELEX 1 aptamer clone (nucleic acid)
DNA: B1 DNA with A29G
modifications: DNA, backbone not given here
notes: DNA SELEX 1 aptamer clone
B7: AMX199.B7: DNA SELEX 1 aptamer clone (nucleic acid)
DNA: B1 DNA with A23G, A30G
modifications: DNA, backbone not given here
notes: DNA SELEX 1 aptamer clone
B8: AMX200.D3: DNA SELEX 1 aptamer clone (nucleic acid)
DNA: B1 DNA with G22C, A29G, G36A
modifications: DNA, backbone not given here
notes: DNA SELEX 1 aptamer clone
B9: AMX199.C4: DNA SELEX 1 aptamer clone (nucleic acid)
DNA: B1 DNA with A29G, G36A, T45A
modifications: DNA, backbone not given here
notes: DNA SELEX 1 aptamer clone
B10: AMX199.B3: DNA SELEX 1 aptamer clone (nucleic acid)
DNA: B1 DNA with G36A
modifications: DNA, backbone not given here
notes: DNA SELEX 1 aptamer clone
B11: AMX199.D11: DNA SELEX 1 aptamer clone (nucleic acid)
DNA: B1 DNA
modifications: DNA, backbone not given here
notes: DNA SELEX 1 aptamer clone
B12: AMX198.C6: rRfY aptamer clone (nucleic acid)
chain: rGrGrArGfCrGfCrAfCfUfCrArGfCfCrAfCrGrGfUrGrGfUfCrArGfUfCrArGfUrGrAfUrAfUrGrAfUfUrArArGfUfUfCrArGfCfUrGfUrGrGfCfUrGfUfUfUfCrGrAfCfCfUfCfUfCfUrGfCfUrArGfC
B13: AMX198.C10: rRfY aptamer clone (nucleic acid)
chain: rGrGrArGfCrGfCrAfCfUfCrArGfCfCrAfCfUrGrGfUfCfCfUfUrArGfCfUrArGfUfUrGfUrAfCfUrArGfCrGrAfCrGfCrGfUfUfCrArGrGfUrGrGfUfUfUfCrGrAfCfCfUfCfUfCfUrGfCfUrArGfC
B14: AMX201.G9: rRfY aptamer clone (nucleic acid)
chain: rGrGrArGfCrGfCrAfCfUfCrArGfCfCrAfCfUrArAfCrGrGfCfUrGrAfUfCfUfCrArGrGrAfCfUrArArAfUrArGfUfCrArAfCrArArGrGrAfUrGfCrGfUfUfUfCrGrAfCfCfUfCfUfCfUrGfCfUrArGfC
B15: AMX201.H1: rRfY aptamer clone (nucleic acid)
chain: rGrGrArGfCrGfCrAfCfUfCrArGfCfCrAfCfUfUfUrAfCrGrGfUrGrArArArGfUfCfUfCfUfCrGrGrGrGfUfUfCfCrGrArGfUfUrAfCrGrGfUrGfCrGfUfUfUfCrGrAfCfCfUfCfUfCfUrGfCfUrArGfC
B16: AMX198.E11: rRfY aptamer clone (nucleic acid)
chain: rGrGrArGfCrGfCrAfCfUfCrArGfCfCrAfCrGrGfUrArAfCrAfUfUrGfUfUfUfCfCrGrGfCrGrAfUfUfCfUfUfUrGrArAfCrGfCfCrGfUfCrGfUrGrGfUfUfUfCrGrAfCfCfUfCfUfCfUrGfCfUrArGfC
B17: AMX198.A10: rRfY aptamer clone (nucleic acid)
chain: rGrGrArGfCrGfCrAfCfUfCrArGfCfCrAfCfCrArGfUfUrAfUrGfCfUrGrGfCfUfUfUrGrGfUfCfUfUfUrGrAfCfUrGfUfCfUrGrArGfUrGfUfUfCrGfUfUfUfCrGrAfCfCfUfCfUfCfUrGfCfUrArGfC
B18: AMX198.E5: rRfY aptamer clone (nucleic acid)
chain: rGrGrArGfCrGfCrAfCfUfCrArGfCfCrAfCfUfUfCrGrAfCfUfUfUfCrAfUrGfUfCfUrGrArArGfUfCfCfCfUrGfCrArGfUrGfCrGrArGrArGrAfCrGfUfUfUfCrGrAfCfCfUfCfUfCfUrGfCfUrArGfC

tested on: rabbit vWF A1 domain (SEQ ID NO 6); test: 3-point dot blot screen, rabbit vWF A1 domain; assay type: binding; conditions: 3-point dot blot screen, 20 nM rabbit vWF A1 domain; ratio of fraction of aptamer bound with target protein to fraction bound without protein
Sequence (as listed by the source): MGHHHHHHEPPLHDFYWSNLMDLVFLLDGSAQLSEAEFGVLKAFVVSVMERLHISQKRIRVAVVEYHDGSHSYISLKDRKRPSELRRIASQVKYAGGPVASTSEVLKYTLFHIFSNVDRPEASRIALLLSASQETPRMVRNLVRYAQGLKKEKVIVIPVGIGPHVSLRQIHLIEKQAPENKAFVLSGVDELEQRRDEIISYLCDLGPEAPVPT
How it was run: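 Rabbit vWF A1 domain binding was screened by dot blot using three conditions: no target protein, human vWF, and rabbit vWF A1 domain at 100 nM (20 nM in the screen run twice). Radiolabeled aptamer bound to nitrocellulose was quantified, and results are expressed as the ratio of bound fraction with protein to bound fraction without protein.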

| Molecule | Screen Rabbit/No Protein |
| --- | --- |
| B1 | 6.04 |

same assay, conditions: DNA SELEX 1 aptamers; 100 nM rabbit vWF A1 domain; ratio of fraction bound with target to without

| Molecule | Screen- Rabbit/No Protein |
| --- | --- |
| B2 | 3.64 |
| B3 | 2.66 |
| B4 | 5.00 |
| B5 | 4.61 |
| B6 | 3.25 |
| B7 | 3.65 |
| B8 | 2.41 |
| B9 | 2.85 |
| B10 | 1.99 |
| B11 | 3.42 |

same assay, conditions: rRfY aptamers; 100 nM rabbit vWF A1 domain; ratio of fraction bound with target to without

| Molecule | Screen- Rabbit/No Protein |
| --- | --- |
| B12 | 4.62 |
| B13 | 3.39 |
| B14 | 2.11 |
| B15 | 2.46 |
| B16 | 2.37 |
| B17 | 5.74 |
| B18 | 1.56 |

biological target: T1, human vWF A1 domain (SEQ ID NO 5) (Homo sapiens, UniProt P04275, T1381A); test: dot blot KD determination, human vWF A1 domain; conditions: DNA 1 minimers; competition dot blot, 10 nM protein
T1 sequence (P04275 with tags, fused parts or gaps T1381A): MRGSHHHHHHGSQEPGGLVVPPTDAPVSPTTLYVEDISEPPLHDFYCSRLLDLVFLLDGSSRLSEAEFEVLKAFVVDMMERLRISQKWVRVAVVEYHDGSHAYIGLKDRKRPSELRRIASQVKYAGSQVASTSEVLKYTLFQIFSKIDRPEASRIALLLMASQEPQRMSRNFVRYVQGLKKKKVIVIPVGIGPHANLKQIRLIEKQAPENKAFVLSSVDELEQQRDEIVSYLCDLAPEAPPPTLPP

| Molecule | Human vWF A1 domain KD |
| --- | --- |
| CGATCTGACTAGCGGAATGAGAATGCTGGTGGATCG (DNA, backbone not given here) [SEQ ID NO 206] | No binding |
| GATCTGACTAGCGCAATGAGGATGCdTGATGGATTGCTCAGGTC (GATCTGACTAGCGCAATGAGGATGCDTGATGGATTGCTCAGGTC; DNA, backbone and the base at N not given here) [SEQ ID NO 207] | No binding |

same assay, conditions: read-out: Human A1 KD; DNA SELEX 1 aptamers; competition dot blot, 100 nM protein, cold competitor titration

| Molecule | Kd [µM] |
| --- | --- |
| B2 | 0.026 |
| B3 | 0.022 |
| B4 | 0.022 |
| B5 | 0.017 |
| B6 | 0.034 |
| B7 | 0.029 |
| B8 | 0.036 |
| B9 | 0.034 |
| B10 | 0.03 |
| B11 | 0.03 |

same assay, conditions: read-out: human A1 KD; rRfY aptamers; 8 point titration of human vWF A1 domain

| Molecule | Kd [µM] |
| --- | --- |
| B12 | 0.249 |
| B13 | 0.555 |
| B14 | 0.182 |
| B15 | 0.189 |
| B16 | 1.06 |
| B17 | 1.86 |
| B18 | 0.172 |

tested on: full length human vWF; test: 3-point dot blot screen, full length human vWF; assay type: binding; conditions: 20 nM full length human vWF, ratio of fraction of aptamer bound with target protein to fraction bound without protein
From the text: When a significant positive ratio of binding of DNA in the presence of human or rabbit vWF A1 domain versus in the absence of protein was seen, the pools were cloned using the TOPO TA cloning kit (Invitrogen Cat. #45-0641, Carlsbad, Calif.) according to the manufacturer's instructions. Round 7 and 11 pool templates were cloned and sequenced (218 total sequences), producing 146 unique clones within 12 sequence families of which sequences from six families show vWF target binding activity. All unique clones were assayed twice in a 3-point dot blot screen (no protein target control, 20 nM full length human vWF (Calbiochem Cat. #681300, La Jolla, Calif.), or 20 nM rabbit vWF A1 domain. The data is presented in the third and fourth columns of Table 17 below as the ratio of the fraction of the aptamer bound to the nitrocellulose in the presence of the target protein to the fraction of aptamer bound in the absence of the target protein.

| Molecule | Screen- Human/No Protein |
| --- | --- |
| B1 | 1.12 |

tested on: full length human vWF binding to lyophilized platelets; test: Full length human von Willebrand Factor platelet binding assay (FACS); assay type: cell-based; conditions: 5 nM full length human vWF, lyophilized platelets, botrocetin; both bounds in nM
Protocol: The amount of vWF bound to fixed platelets can be measured with an antibody to vWF. The fluorescence signal from bound antibody incubated with a fluorescein conjugated secondary antibody is then detected and quantified by flow cytometry. The ability of an aptamer of the invention to block vWF binding to platelets is correlated with a reduction in fluorescence signal.
Aptamer potency to block human vWF binding to lyophilized platelets was assessed by flow cytometric analysis. Titrations of aptamers (0 nM, 0.1 nM to 1000 nM) were pre-incubated briefly with 5 nM of full length human vWF in FACS buffer (PBS plus 0.5% bovine serum albumin) at room temperature in a volume of 50 uL. Another 50 uL containing 5 uL of lyophilized platelets plus 1 uL of 0.1 U/uL of botrocetin in FACS buffer was added to aptamer/vWF. This reaction was allowed to proceed for 15 minutes at 37 degrees C. after which 200 uL of FACS buffer was added. Platelets were collected by a 6 minute spin at 1470 RCF and the supernatant was discarded. The pellets were resuspended in 100 uL of FACS buffer containing a 1:100 dilution of anti-vWF antibody and were incubated at room temperature for 30 minutes. After dilution with 200 uL of FACS buffer, the platelets were spun at 1470 RCF for 6 minutes and the supernatant was discarded. The pellets were resuspended in a 1:100 solution of anti-IgG2a-FITC antibody and were incubated in the dark for 30 minutes at room temperature. The entire 100 uL was diluted into 200 uL of FACS buffer and analyzed immediately by flow cytometric analysis in the FACSCAN. Artifactual data from contaminating debris was eliminated from the analysis by drawing a gate around the population of single and aggregated platelets. Mean fluorescent intensity (“MFI”) readings were quantified for each sample analyzed by flow cytometry. Background MFI was subtracted from all data points. Percent inhibition was reported by calculating the percent value of binding of full length human vWF to platelets in the presence of aptamer at a given concentration relative to binding in the absence of any aptamer (see FIG. 7). IC50 values were determined by fitting the percent inhibition of vWF binding to platelets as a function of aptamer concentration to the equation: % inhibition=% inhibitionmax/(1+IC50/aptamer conc.)

| Molecule | Inhibition of full length hVWF binding in FACS assay, IC50 range |
| --- | --- |
| B1 | no activity |

biological target: T1, human vWF A1 domain (SEQ ID NO 5); test: 3-point dot blot screen, human vWF A1 domain; assay type: binding; conditions: DNA SELEX 1 aptamers; 100 nM human vWF A1 domain; ratio of fraction bound with target to without
How it was run: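 Values are ratios of aptamer fraction retained on nitrocellulose with 100 nM vWF A1 domain (human or rabbit) versus a no-protein control. Unique clones from rounds 9 and 12 pools were transcribed, desalted and 5'-32P labeled before this three-point dot blot screen.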

| Molecule | Screen- Human/No Protein |
| --- | --- |
| B2 | 6.00 |
| B3 | 4.97 |
| B4 | 5.47 |
| B5 | 5.09 |
| B6 | 3.83 |
| B7 | 4.08 |
| B8 | 2.68 |
| B9 | 3.60 |
| B10 | 1.76 |
| B11 | 4.19 |

same assay, conditions: rRfY aptamers; 100 nM human vWF A1 domain; ratio of fraction bound with target to fraction bound without target

| Molecule | Screen- Human/No Protein |
| --- | --- |
| B12 | 3.03 |
| B13 | 1.40 |
| B14 | 2.06 |
| B15 | 2.61 |
| B16 | 1.03 |
| B17 | 1.26 |
| B18 | 1.60 |
